Test results: patent US20190352395A1 (REDWOOD BIOSCIENCE, published 2019)
Positions count from the first letter of the chain named.

B1: humanized RFB4 antibody VH6/VK2 (antibody, human IgG1, V domains shown)
VH: EVQLVESGGGLVKPGGSLKLSCAASGFAFSIYDMSWVRQAPGKGLEWVAYISSGGGTTYYPDTVKGRFTISRDNAKNSLYLQMSSLRAEDTAMYYCARHSGYGSSYGVLFAYWGQGTLVTVSS
VL: DIQMTQSPSSLSASVGDRVTITCRASQDISNYLNWYQQKPGKAVKLLIYYTSILHSGVPSRFSGSGSGTDYTLTISSLQPEDFATYFCQQGNTLPWTFGGGTKVEIK
B2: humanized RFB4 antibody VH6/VK1 (antibody, human IgG1, V domains shown)
VH: B1 VH
VL: B1 VL with P80Q
B3: humanized RFB4 antibody VH5/VK1 (antibody, human IgG1, V domains shown)
VH: B1 VH with S84N
VL: B1 VL with P80Q
B4: humanized RFB4 antibody VH3/VK1 (antibody, human IgG1, V domains shown)
VH: B1 VH with S78T
VL: B1 VL with P80Q
B5: humanized RFB4 antibody VH5/VK4 (antibody, human IgG1, V domains shown)
VH: B1 VH with S84N
VL: B1 VL with L11V, V44P
B6: humanized RFB4 antibody VH3/VK4 (antibody, human IgG1, V domains shown)
VH: B1 VH with S78T
VL: B1 VL with L11V, V44P
B7: humanized RFB4 antibody VH4/VK2 (antibody, human IgG1, V domains shown)
VH: B1 VH with K19R
VL: B1 VL
B8: humanized RFB4 antibody VH4/VK1 (antibody, human IgG1, V domains shown)
VH: B1 VH with K19R
VL: B1 VL with P80Q
B9: humanized RFB4 antibody VH6/VK4 (antibody, human IgG1, V domains shown)
VH: B1 VH
VL: B1 VL with L11V, V44P
B10: humanized RFB4 antibody VH3/VK2 (antibody, human IgG1, V domains shown)
VH: B1 VH with S78T
VL: B1 VL
B11: humanized RFB4 antibody VH5/VK2 (antibody, human IgG1, V domains shown)
VH: B1 VH with S84N
VL: B1 VL
B12: humanized RFB4 antibody VH4/VK4 (antibody, human IgG1, V domains shown)
VH: B1 VH with K19R
VL: B1 VL with L11V, V44P

Target: T1, CD22-Fc (R&D Systems Cat. No. 1968SL) (human, UniProt P20273 20-687)
T1 construct: Bought reagent; also called CD22 antigen; huCD22-Fc; not shown: Fc part of the bought fusion
T1 sequence (looked up): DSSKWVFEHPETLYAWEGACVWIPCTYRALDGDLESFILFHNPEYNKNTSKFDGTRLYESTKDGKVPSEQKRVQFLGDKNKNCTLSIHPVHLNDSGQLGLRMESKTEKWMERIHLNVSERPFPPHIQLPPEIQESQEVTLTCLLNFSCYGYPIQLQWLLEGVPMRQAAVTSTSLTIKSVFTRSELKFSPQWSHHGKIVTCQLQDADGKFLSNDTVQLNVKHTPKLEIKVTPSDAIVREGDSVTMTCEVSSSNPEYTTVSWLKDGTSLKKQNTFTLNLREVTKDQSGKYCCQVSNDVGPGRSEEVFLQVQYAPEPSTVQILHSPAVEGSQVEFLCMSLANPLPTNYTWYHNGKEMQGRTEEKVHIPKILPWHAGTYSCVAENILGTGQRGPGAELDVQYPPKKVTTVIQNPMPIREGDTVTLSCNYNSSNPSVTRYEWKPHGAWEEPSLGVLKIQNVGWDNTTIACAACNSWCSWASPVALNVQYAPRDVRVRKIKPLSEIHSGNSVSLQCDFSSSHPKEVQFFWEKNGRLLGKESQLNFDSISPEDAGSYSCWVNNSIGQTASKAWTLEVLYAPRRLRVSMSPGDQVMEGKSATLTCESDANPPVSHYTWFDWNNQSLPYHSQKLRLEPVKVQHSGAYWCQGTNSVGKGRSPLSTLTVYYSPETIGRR
Assay: competition ELISA on coated CD22-Fc; competitor biotinylated chimeric RFB4
Experimental: 96 well MaxiSorp plates (Nunc) were coated with 1.0 μg/ml CD22-Fc (R&D Systems Cat. No. 1968SL) in Dulbecco's PBS (PAA Laboratories, Yeovil, UK) (60 μl final volume) at 4° C. overnight. Plates were blocked with Dulbecco's PBS-2% BSA for 1 hour at room temperature. Plates were washed 3 times with wash buffer (0.05% Tween20 in Dulbecco's-PBS). […] All samples were tested in duplicate. Plates were incubated for 1 h at room temperature and washed 3 times with wash buffer. 60 μl of a 1 in 1000 dilution of Streptavidin horse radish peroxidase (HRP) (Sigma-Aldrich) was added and incubated for 1 hour at room temperature. Plates were washed 3 times with wash buffer and 60 μl of 3,3′,5,5′-tetramethybenzidine (TMB) substrate (Invitrogen) was added and incubated at room temperature in the dark to allow the colour to develop. The reaction was stopped by adding 50 μl of 3M HCl. Plates were read at 450 nm using Dynex plate reader.

In order of rising “IC50 relative to Chimeric RFB4 IgG1” value:
1. B4  0.8 relative to Chimeric RFB4 IgG1
2. B2  0.9 relative to Chimeric RFB4 IgG1
3. B3  0.9 relative to Chimeric RFB4 IgG1
4. B8  0.9 relative to Chimeric RFB4 IgG1
5. B1  1 relative to Chimeric RFB4 IgG1
6. B5  1 relative to Chimeric RFB4 IgG1
7. B9  1 relative to Chimeric RFB4 IgG1
8. B10  1 relative to Chimeric RFB4 IgG1
9. B11  1 relative to Chimeric RFB4 IgG1
10. B12  1 relative to Chimeric RFB4 IgG1
11. B6  1.1 relative to Chimeric RFB4 IgG1
12. B7  1.1 relative to Chimeric RFB4 IgG1
